The results in this text go back to patent US20170081378A1 (INDIANA UNIVERSITY RESEARCH AND TECHNOLOGY, published 2017).

Residue numbers refer to the chain shown, from its start. Where no end group is shown, it is not given here.

The target of assay [1] is T1, fLL-37 (LL-37 with 5' carboxyfluorescein coupled to the N-terminus) (human, 5' carboxyfluorescein coupled to the N-terminus).
T1 construct: Custom synthesized labelled peptide (AnaSpec), used at 0.1 uM in the fluorescence polarization assay; also called fluorescein-labeled LL-37
T1 peptide: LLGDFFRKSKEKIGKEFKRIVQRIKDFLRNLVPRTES
The assay can be described thus: fluorescence polarization, fLL-37 0.1 uM, peptide titrated 1-1000 nM, phosphate buffer pH 7.0. (In general: Polarisation of emitted light reports the rotation of a fluorescent probe.)

For assay [2], the target named is T1, fLL-37 (LL-37 with 5' …). The experiment in a line: fluorescence polarization (FIG. 11).
In assay [3] the target is fLL-37 (LL-37 with 5' carboxyfluorescein coupled to the N-terminus) (human). The experiment in a line: fluorescence polarization, fLL-37 0.1 uM, peptide titrated 1-1000 nM, phosphate buffer pH 7.0.
Assay [4] has as its target T1, fLL-37 (LL-37 with 5' …). The experiment in a line: FRET between fLL-37 and rLL-37 (1:1) in endosomes of BEAS-2B cells, confocal microscopy. As for the experimental part: FIG. 3. Oligomerization of LL-37 depends upon pH. A) LL-37 forms particles that are micrometers in hydrodynamic radii at neutral pH and the particles dissociate when the pH is decreased. All assays were performed with LL-37 at a concentration of 1 ᵢlM in phosphate buffer. […] C) LL-37 particles will dissociate in the presence of salt. The hydrodynamic radius of ˜1 μM LL-37 was determined in a pH 7.4 phosphate buffer adjusted to contain the concentration of NaCl indicated. D) fLL37 and rLL-37 colocalize in endosomes of BEAS-2B cells. fLL-37, rLL-37, and poly(I:C) were added to BEAS-2B cells that were either mock-treated or treated with ammonium chloride and imaged 60 min later by excitation at 488 nm or at 561 nm. The micrograph images were then merged to show the co-localization of the two fluorescent peptides. E) Co-localization of fLL-37 and rLL-37 in BEAS-2B cells was quantified in the absence or presence of endosomal acidification inhibitors. To detect both peptides, the cells were excited with 488 and 561 nm laser. To determine FRET between the two peptides, the cells were excited at only 488 nm laser, which activates fluorescence of fLL-37 and the emissions for both fluorescein and rhodamine were determined. The data shown were quantified from 20 independent cells from three independently prepared samples. The p values were calculated by using the Student t-test. […]

In the case of GLLRKGGEKIGEKLKKIGQKIKNFFQKLVPQPEQ (also called mouse peptide) [mCRAMP (murine ortholog of LL-37)], the “fold change in the fluorescence anisotropy values of f-LL-37 between 1.0 nM and 1000 nM of added peptide” value (“fold change” below) in the assay with fLL-37 (LL-37 with 5' …) [1] was determined as 2.6 fold.

In the case of SKEKIGKEFKRIVQRIKDFLRNLVPRTES [LL8-37], in the assay with fLL-37 (LL-37 with 5' …) [2], the binding result is reported as “binds”.

SKEKIGKEFKRIVQRIKDFLR [LL9-29] showed a fold change in the fluorescence anisotropy values of f-LL-37 between 1.0 nM and 1000 nM of added peptide in assay [3] of 2.6 fold.

Consider LLGDFFRKSKEKIGKEFKRIVQRIKDFLRNLVPRTES (also: rhodamine label, position not given here) [rhodamine-labeled LL-37 (rLL-37)], for which the binding result with fLL-37 (LL-37 with 5' …) [4] was “binds”.

B1: Peptide A (peptide)
peptide: T1 peptide with N30K, R34Q, T35P, S37Q
notes: LL-37 with the C-terminal four residues replaced with those from mCRAMP
For B1, in the assay with fLL-37 (LL-37 with 5' …) [1], the “fold change” value was determined as 5 fold.

B2: LL-37 (peptide)
peptide: T1 peptide
notes: Unlabelled synthetic 37-residue peptide; also called WT LL-37; native LL-37
As for B2, the “fold change” value with fLL-37 (LL-37 with 5' …) [1] came to 6 fold.

B3: LL-29 (peptide)
peptide: LLGDFFRKSKEKIGKEFKRIVQRIKDFLR
notes: N-terminal 29 residues of LL-37 (lacks the C-terminal 8 residues)
B3: in the assay with fLL-37 (LL-37 with 5' …) [1], the “fold change” value is 6.2 fold.
